Experimental data: US20030200555A1

Biological target: APP695-derived polypeptide (SEQ.ID.NO.: 28) having the modified sequence NLDV (SEQ.ID.NO.: 7) (human) (UniProt P05067)
Test: cell-based or functional assay

Question: Which production of Aβ in the HEK293T cells (times the level of wild type APP695) does the source give for “β-secretase (of the HEK293T cells in which the APP β-site mutants were expressed) (from UniProt P56817 46-501) (enzyme)” here?
Answer: Its production of Aβ in the HEK293T cells (times the level of wild type APP695) is 3.
